The values that follow are results of earlier work, collected in paper PMC12455044.

One may read the Kd as the equilibrium constant for the complex coming apart.

In this data set the target is thrombin (Homo sapiens) (UniProt P00734).

Turning to PAR-1 (from UniProt P25116), the Kd is 10 nM.
